For this assay, the target named is T1, His-GSK3β (UniProt P49841 1-420).
T1 construct: GSK3β, recombinant protein of the GST pull-down; The reagents list a bought recombinant human GSK3β protein (active) (Abcam ab60863); also called recombinant His-GSK3β; source: recombinant
Kind of assay: pull-down; GST pull-down with recombinant GST-SIRT7 and His-GSK3β. Particulars: both partners purified.

This note sets out measurements from paper PMC8387475, “Combined intermittent fasting and ERK inhibition enhance the anti-tumor effects of chemotherapy via the GSK3β-SIRT7 axis” (Nature Communications, 2021).

T1 sequence (P49841 whole entry): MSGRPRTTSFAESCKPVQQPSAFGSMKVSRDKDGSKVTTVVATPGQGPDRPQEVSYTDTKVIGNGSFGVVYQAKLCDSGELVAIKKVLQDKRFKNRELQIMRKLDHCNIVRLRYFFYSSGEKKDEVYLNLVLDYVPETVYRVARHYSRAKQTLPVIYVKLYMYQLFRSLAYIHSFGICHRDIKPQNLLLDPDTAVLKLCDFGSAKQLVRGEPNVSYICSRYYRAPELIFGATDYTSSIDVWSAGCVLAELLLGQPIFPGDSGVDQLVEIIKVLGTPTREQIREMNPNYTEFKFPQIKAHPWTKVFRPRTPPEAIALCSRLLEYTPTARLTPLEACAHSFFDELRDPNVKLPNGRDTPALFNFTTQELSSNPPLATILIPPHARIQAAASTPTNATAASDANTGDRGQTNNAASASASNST

B1: GST-SIRT7 (natural protein, human, UniProt Q9NRC8 1-400, looked up)
chain: MAAGGLSRSERKAAERVRRLREEQQRERLRQVSRILRKAAAERSAEEGRLLAESADLVTELQGRSRRREGLKRRQEEVCDDPEELRGKVRELASAVRNAKYLVVYTGAGISTAASIPDYRGPNGVWTLLQKGRSVSAADLSEAEPTLTHMSITRLHEQKLVQHVVSQNCDGLHLRSGLPRTAISELHGNMYIEVCTSCVPNREYVRVFDVTERTALHRHQTGRTCHKCGTQLRDTIVHFGERGTLGQPLNWEAATEAASRADTILCLGSSLKVLKKYPRLWCMTKPPSRRPKLYIVNLQWTPKDDWAALKLHGKCDDVMRLLMAELGLEIPAYSRWQDPIFSLATPLRAGEEGSHSRKSLCRSREEAPPGDRGAPLSSAPILGGWFGRGCTKRTKRKKVT
notes: SIRT7 cloned into pGEX-4T-3; also called GST-SIRT7-WT; recombinant GST-SIRT7; source: E. coli BL21, purified (glutathione agarose)
As for B1, the binding result is on record as “binds”.
